# Source: patent US20260232827A1 (Zymeworks, published 2026)
# B1: v18993 (lifastuzumab), reference anti-NaPi2b antibody (antibody, human IgG1, kappa)
# heavy 1: GEVQLVESGGGLVQPGGSLRLSCAASGFSFSDFAMSWVRQAPGKGLEWVATIGRVAFHTYYPDSMKGRFTISRDNSKNTLYLQMNSLRAEDTAVYYCARHRGFDVGHFDFWGQGTLVTVSSASTKGPSVFPLAPSSKSTSGGTAALGCLVKDYFPEPVTVSWNSGALTSGVHTFPAVLQSSGLYSLSSVVTVPSSSLGTQTYICNVNHKPSNTKVDKKVEPKSCDKTHTCPPCPAPELLGGPSVFLFPPKPKDTLMISRTPEVTCVVVDVSHEDPEVKFNWYVDGVEVHNAKTKPREEQYNSTYRVVSVLTVLHQDWLNGKEYKCKVSNKALPAPIEKTISKAKGQPREPQVYVYPPSRDELTKNQVSLTCLVKGFYPSDIAVEWESNGQPENNYKTTPPVLDSDGSFALVSKLTVDKSRWQQGNVFSCSVMHEALHNHYTQKSLSLSPG
# heavy 2: not shown
# light: GDIQMTQSPSSLSASVGDRVTITCRSSETLVHSSGNTYLEWYQQKPGKAPKLLIYRVSNRFSGVPSRFSGSGSGTDFTLTISSLQPEDFATYYCFQGSFNPLTFGQGTKVEIKRTVAAPSVFIFPPSDEQLKSGTASVVCLLNNFYPREAKVQWKVDNALQSGNSQESVTEQDSKDSTYSLSSTLTLSKADYEKHKVYACEVTHQGLSSPVTKSFNRGEC
# B2: v38591 (humanized anti-NaPi2b antibody, wild-type Fc) (antibody, human IgG1, kappa)
# heavy: not shown
# light: DVQMTQSPSSLSASVGDRVTITCRASQDVYSYLNWYQQKPGKAVKLLIYYTSRLQSGVPSRFSGSGSGTDYTLTISSLQPEDFATYYCQQYNIFPWTFGQGTKLEIKRTVAAPSVFIFPPSDEQLKSGTASVVCLLNNFYPREAKVQWKVDNALQSGNSQESVTEQDSKDSTYSLSSTLTLSKADYEKHKVYACEVTHQGLSSPVTKSFNRGEC
# notes: also called v38591 Wild-type; H1L2
# B3: v18992 (MX35), reference anti-NaPi2b antibody (antibody, human IgG1, kappa)
# heavy 1: GQVQLVQSGAEVVKPGASVKMSCKASGYTFTGYNIHWVKQAPGQGLEWIGAIYPGNGDTSYKQKFRGRATLTADTSTSTVYMELSSLRSEDSAVYYCARGETARATFAYWGQGTLVTVSSASTKGPSVFPLAPSSKSTSGGTAALGCLVKDYFPEPVTVSWNSGALTSGVHTFPAVLQSSGLYSLSSVVTVPSSSLGTQTYICNVNHKPSNTKVDKKVEPKSCDKTHTCPPCPAPELLGGPSVFLFPPKPKDTLMISRTPEVTCVVVDVSHEDPEVKFNWYVDGVEVHNAKTKPREEQYNSTYRVVSVLTVLHQDWLNGKEYKCKVSNKALPAPIEKTISKAKGQPREPQVYVYPPSRDELTKNQVSLTCLVKGFYPSDIAVEWESNGQPENNYKTTPPVLDSDGSFALVSKLTVDKSRWQQGNVFSCSVMHEALHNHYTQKSLSLSPG
# heavy 2: not shown
# light: GDIQMTQSPSSLSASVGDRVTITCSASQDIGNFLNWYQQKPGKTVKVLIYYTSSLYSGVPSRFSGSGSGTDYTLTISSLQPEDFATYYCQQYSKLPLTFGQGTKLELKRTVAAPSVFIFPPSDEQLKSGTASVVCLLNNFYPREAKVQWKVDNALQSGNSQESVTEQDSKDSTYSLSSTLTLSKADYEKHKVYACEVTHQGLSSPVTKSFNRGEC
# Assays:
# [1] = target: T1, Construct 7 (NaPi2b del 317-326) (human, UniProt O95436 1-690); experiment: flow cytometry, HEK293-6e cells transfected with Construct 7
# T1 construct: Deletion construct on HEK293-6e cells; also called CL_#29921
# T1 sequence: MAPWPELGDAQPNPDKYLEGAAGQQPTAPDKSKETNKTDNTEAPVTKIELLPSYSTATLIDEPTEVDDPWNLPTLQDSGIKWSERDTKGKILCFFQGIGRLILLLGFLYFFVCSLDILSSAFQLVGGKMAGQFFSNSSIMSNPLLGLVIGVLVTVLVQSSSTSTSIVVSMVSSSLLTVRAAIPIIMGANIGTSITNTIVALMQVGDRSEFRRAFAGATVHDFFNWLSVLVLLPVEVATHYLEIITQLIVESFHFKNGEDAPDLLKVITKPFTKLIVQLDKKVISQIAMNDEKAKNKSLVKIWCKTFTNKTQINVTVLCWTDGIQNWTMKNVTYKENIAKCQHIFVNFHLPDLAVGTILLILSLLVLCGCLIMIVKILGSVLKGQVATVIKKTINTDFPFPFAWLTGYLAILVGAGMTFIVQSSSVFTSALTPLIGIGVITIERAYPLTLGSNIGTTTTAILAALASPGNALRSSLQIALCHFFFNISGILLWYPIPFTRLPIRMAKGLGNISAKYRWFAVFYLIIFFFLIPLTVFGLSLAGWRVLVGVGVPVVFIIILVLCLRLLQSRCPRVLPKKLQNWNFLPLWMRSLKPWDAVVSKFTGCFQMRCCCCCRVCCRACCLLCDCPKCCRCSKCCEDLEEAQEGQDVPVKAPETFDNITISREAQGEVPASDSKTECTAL
# Procedure: Following transfection, cells were seeded at 50,000 cells/well in conical-bottom 96-well plates and treated with a serial dilution of test antibody for 24 hours at 4° C. to prevent internalization. Cells were treated with final concentrations of all humanized antibodies of 200, 20, or 2 nM. Cells were treated with final concentrations of the reference anti-NaPi2a rabbit antibody of 50, 5, or 0.5 nM. […] Following incubation and washing, fluorescence was detected by flow cytometry on a BD LSRFortessa™ Cell Analyzer (BD Biosciences, Franklin Lake, NJ) with 1,000 minimum events collected per well. […] Background-subtracted AF647 Mean Fluorescence Intensity (MFI) values were calculated by subtracting the average MFI of three technical replicates of unstained (no primary antibody) cells.
# [2] = target: T2, human sodium-dependent phosphate transporter 2B (NaPi2b) (human, UniProt O95436 1-690); experiment: flow cytometry on H441 cells (endogenous NaPi2b), 24 h at 4 C, anti-human IgG Fc AF647, APC-A GeoMean
# T2 construct: UniProt ID is given as 095436 [sic]; also called hNaPi2b; Hu NaPi2b
# T2 sequence: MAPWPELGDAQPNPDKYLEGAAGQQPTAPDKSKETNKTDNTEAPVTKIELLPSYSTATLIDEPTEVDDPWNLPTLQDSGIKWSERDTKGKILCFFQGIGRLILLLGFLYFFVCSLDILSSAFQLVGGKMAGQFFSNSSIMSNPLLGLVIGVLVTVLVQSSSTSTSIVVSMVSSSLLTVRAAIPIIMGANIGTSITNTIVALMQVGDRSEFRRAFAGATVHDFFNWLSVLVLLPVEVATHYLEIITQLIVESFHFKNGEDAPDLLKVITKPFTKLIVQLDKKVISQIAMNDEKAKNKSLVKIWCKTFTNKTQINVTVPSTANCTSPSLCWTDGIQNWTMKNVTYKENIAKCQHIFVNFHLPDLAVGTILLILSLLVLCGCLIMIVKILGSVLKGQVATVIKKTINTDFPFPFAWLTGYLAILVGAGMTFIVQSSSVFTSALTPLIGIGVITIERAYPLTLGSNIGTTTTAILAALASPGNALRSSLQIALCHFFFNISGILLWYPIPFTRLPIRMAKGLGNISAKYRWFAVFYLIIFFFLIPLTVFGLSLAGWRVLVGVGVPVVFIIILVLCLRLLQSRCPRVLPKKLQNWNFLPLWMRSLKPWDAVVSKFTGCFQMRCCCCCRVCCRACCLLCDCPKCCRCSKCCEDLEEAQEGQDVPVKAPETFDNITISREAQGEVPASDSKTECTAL
# Procedure: (§1) Cells were maintained under standard culture conditions (37° C./5% CO₂) until assay set-up. […] Cells were removed from culture vessels using Cell Dissociation Buffer (Invitrogen, Waltham, MA), seeded at 50,000 cells/well in conical-bottom 96-well plates, and treated with test antibody or antibody-drug conjugate for 24 hours at 4° C. to prevent internalization. […] Following incubation and washing, fluorescence was detected by flow cytometry on a BD LSRFortessa™ Cell Analyzer (BD Biosciences, Franklin Lake, NJ) with 1,000 minimum events collected per well.
# [3] = target: T2, human sodium-dependent phosphate …; experiment: flow cytometry on HCC-78 cells (endogenous NaPi2b), 24 h at 4 C, anti-human IgG Fc AF647, APC-A GeoMean
# Procedure: as §1
# [4] = target: T2, human sodium-dependent phosphate …; experiment: flow cytometry on IGROV-1 cells (endogenous NaPi2b), 24 h at 4 C, anti-human IgG Fc AF647, APC-A GeoMean
# mouse NaPi2b = target: T3, mouse NaPi2b (mouse, UniProt Q9DBP0 1-697); experiment: flow cytometry, HEK293-6e cells transfected with mouse NaPi2b; apparent Kd above the highest concentration tested
# T3 construct: also called Ms NaPi2b; CL #13476
# T3 sequence: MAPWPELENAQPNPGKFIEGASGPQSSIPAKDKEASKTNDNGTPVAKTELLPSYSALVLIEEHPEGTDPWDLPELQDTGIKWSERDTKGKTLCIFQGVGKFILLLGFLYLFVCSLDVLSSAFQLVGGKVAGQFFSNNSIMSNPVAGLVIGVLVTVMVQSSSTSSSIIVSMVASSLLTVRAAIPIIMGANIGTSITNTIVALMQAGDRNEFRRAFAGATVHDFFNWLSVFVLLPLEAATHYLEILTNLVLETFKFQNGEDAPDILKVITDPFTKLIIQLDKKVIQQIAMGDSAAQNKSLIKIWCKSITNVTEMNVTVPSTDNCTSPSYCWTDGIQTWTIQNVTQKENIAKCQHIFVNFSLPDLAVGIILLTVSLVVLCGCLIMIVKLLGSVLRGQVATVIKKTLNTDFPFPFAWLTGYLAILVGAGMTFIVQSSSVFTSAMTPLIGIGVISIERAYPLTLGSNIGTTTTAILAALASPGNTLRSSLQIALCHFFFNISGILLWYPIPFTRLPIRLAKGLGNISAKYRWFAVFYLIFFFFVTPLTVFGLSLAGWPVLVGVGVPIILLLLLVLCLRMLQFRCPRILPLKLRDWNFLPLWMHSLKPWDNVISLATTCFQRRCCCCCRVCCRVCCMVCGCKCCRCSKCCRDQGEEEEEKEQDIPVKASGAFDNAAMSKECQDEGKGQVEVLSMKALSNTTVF
binder,measurement,setting,value
B1,binding result,[1],no binding (tested: 200 nM)
B2,EC50 (read off the curve),[2],~0.6 nM
same,EC50 (read off the curve),[3],~3 nM
same,EC50 (read off the curve),[4],~2 nM
B3,Kd,mouse NaPi2b,> 200 nM
